# Test results published in article PMC8988010 (The Journal of Biological Chemistry, 2021).
# Where a chain is given by its changes, count along the chain named. In names and notes the source's numbering stands.
# B1: HNF-1A DD-DBD (hepatocyte nuclear factor 1A, residues 1-279, WT) (domain or fragment, human, UniProt P20823 1-279, looked up)
# chain: MVSKLSQLQTELLAALLESGLSKEALIQALGEPGPYLLAGEGPLDKGESCGGGRGELAELPNGLGETRGSEDETDDDGEDFTPPILKELENLSPEEAAHQKAVVETLLQEDPWRVAKMVKSYLQQHNIPQREVVDTTGLNQSHLSQHLNKGTPMKTQKRAALYTWYVRKQREVAQQFTHAGQGGLIEEPTGDELPTKKGRRNRFKWGPASQQILFQAYERQKNPSKEERETLVEECNRAECIQRGVSPSQAQGLGSNLVTEVRVYNWFANRRKEEAFRH
# B2: HNF-1A DD-DBD/R263C (residues 1-279, MODY3 variant p.Arg263Cys) (domain or fragment, human, UniProt P20823 1-279, looked up)
# chain: B1 chain with R263C
# B3: HNF-1A DD-DBD/N266S (residues 1-279, variant p.Asn266Ser) (domain or fragment, human, UniProt P20823 1-279, looked up)
# chain: B1 chain with N266S
# B4: RA (rat albumin promoter oligonucleotide), unlabeled (dsDNA)
# DNA 1: CTTGGTTAATAATTCACCAGA
# DNA 2: TCTGGTGAATTATTAACCAAG
# Columns and labels:
# SEC-MALS = biological target: the molecule itself; test: SEC-MALS
# HNF-1A DD-DBD R263C = HNF-1A DD-DBD R263C (Homo sapiens, UniProt P20823 1-279, R263C); test: ITC
# HNF-1A DBD N266S = HNF-1A DBD N266S (Homo sapiens, UniProt P20823 83-279, N266S); test: ITC
# Chain of HNF-1A DBD N266S (P20823 83-279 N266S): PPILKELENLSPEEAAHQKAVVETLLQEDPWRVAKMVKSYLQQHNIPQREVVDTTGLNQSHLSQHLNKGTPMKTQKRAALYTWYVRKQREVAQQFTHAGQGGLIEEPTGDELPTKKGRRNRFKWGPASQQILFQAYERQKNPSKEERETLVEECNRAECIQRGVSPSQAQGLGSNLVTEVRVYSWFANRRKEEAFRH
# HNF-1A DBD R263C = HNF-1A DBD R263C (Homo sapiens, UniProt P20823 83-279, R263C); test: ITC
# Chain of HNF-1A DBD R263C (P20823 83-279 R263C): as the sequence (P20823 83-279 N266S) above, with R181C, S184N counted along it
# HNF-1A DD-DBD N266S = HNF-1A DD-DBD N266S (Homo sapiens, UniProt P20823 1-279, N266S); test: ITC
# Chain of HNF-1A DD-DBD N266S (P20823 1-279 N266S): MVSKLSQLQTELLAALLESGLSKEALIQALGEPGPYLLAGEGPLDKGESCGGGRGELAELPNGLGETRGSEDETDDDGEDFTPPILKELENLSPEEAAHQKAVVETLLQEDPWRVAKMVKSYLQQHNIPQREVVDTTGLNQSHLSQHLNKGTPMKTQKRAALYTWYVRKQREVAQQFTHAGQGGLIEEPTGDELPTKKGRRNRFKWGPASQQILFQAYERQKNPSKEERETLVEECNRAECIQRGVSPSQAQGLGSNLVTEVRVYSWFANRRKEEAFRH
binder,measurement,setting,value
B1,stoichiometry N,SEC-MALS,2
B2,stoichiometry N,SEC-MALS,2
B3,binding result,SEC-MALS,binds
B4,Kd,HNF-1A DD-DBD R263C,8000 ± 3000 nM
same,Kd,HNF-1A DBD N266S,570 ± 50 nM
same,Kd,HNF-1A DBD R263C,2000 ± 140 nM
same,Kd,HNF-1A DD-DBD N266S,740 ± 110 nM
